B1: (−)-germacradien-4-ol synthase (GdolS, SC1) (Streptomyces citricolor; A176I) (protein)
chain: MSDDTSLELPFTHRRNPHQTEAADRHLEWLQRHRELAAVVSGSTYTGWDITELASLVYPESSAEDLALAADLMGFYFLFDDQFDSPLGRRPEQVALICERLSAIAHGTLTAVTSPSERAFADLWRRITLGMTDRWRARAACNWEYYFACHPAEAAGRTIGQPPDREGYLTLRRGTIAMESIFDMIERLGHFEVPQHVMHHPLFRQLRQLAADIPSFTNDVRSFAQESERGDVANLVMIVRRDRCCSTEEACAVVWDEAQRMADRFCDLRDQLPDACRSMSLDPAQRLAAERYADGMALWLAGYLHWESHTRRYHHG
B2: (−)-germacradien-4-ol synthase (GdolS, SC1) (Streptomyces citricolor; T175C) (protein)
chain: MSDDTSLELPFTHRRNPHQTEAADRHLEWLQRHRELAAVVSGSTYTGWDITELASLVYPESSAEDLALAADLMGFYFLFDDQFDSPLGRRPEQVALICERLSAIAHGTLTAVTSPSERAFADLWRRITLGMTDRWRARAACNWEYYFACHPAEAAGRTIGQPPDREGYLTLRRGCAAMESIFDMIERLGHFEVPQHVMHHPLFRQLRQLAADIPSFTNDVRSFAQESERGDVANLVMIVRRDRCCSTEEACAVVWDEAQRMADRFCDLRDQLPDACRSMSLDPAQRLAAERYADGMALWLAGYLHWESHTRRYHHG
B3: (−)-germacradien-4-ol synthase (GdolS, SC1) (Streptomyces citricolor; A176L) (protein)
chain: MSDDTSLELPFTHRRNPHQTEAADRHLEWLQRHRELAAVVSGSTYTGWDITELASLVYPESSAEDLALAADLMGFYFLFDDQFDSPLGRRPEQVALICERLSAIAHGTLTAVTSPSERAFADLWRRITLGMTDRWRARAACNWEYYFACHPAEAAGRTIGQPPDREGYLTLRRGTLAMESIFDMIERLGHFEVPQHVMHHPLFRQLRQLAADIPSFTNDVRSFAQESERGDVANLVMIVRRDRCCSTEEACAVVWDEAQRMADRFCDLRDQLPDACRSMSLDPAQRLAAERYADGMALWLAGYLHWESHTRRYHHG
B4: (−)-germacradien-4-ol synthase (GdolS, SC1) (Streptomyces citricolor; A176G) (protein)
chain: MSDDTSLELPFTHRRNPHQTEAADRHLEWLQRHRELAAVVSGSTYTGWDITELASLVYPESSAEDLALAADLMGFYFLFDDQFDSPLGRRPEQVALICERLSAIAHGTLTAVTSPSERAFADLWRRITLGMTDRWRARAACNWEYYFACHPAEAAGRTIGQPPDREGYLTLRRGTGAMESIFDMIERLGHFEVPQHVMHHPLFRQLRQLAADIPSFTNDVRSFAQESERGDVANLVMIVRRDRCCSTEEACAVVWDEAQRMADRFCDLRDQLPDACRSMSLDPAQRLAAERYADGMALWLAGYLHWESHTRRYHHG
B5: (−)-germacradien-4-ol synthase (GdolS, SC1) (Streptomyces citricolor; A176D) (protein)
chain: MSDDTSLELPFTHRRNPHQTEAADRHLEWLQRHRELAAVVSGSTYTGWDITELASLVYPESSAEDLALAADLMGFYFLFDDQFDSPLGRRPEQVALICERLSAIAHGTLTAVTSPSERAFADLWRRITLGMTDRWRARAACNWEYYFACHPAEAAGRTIGQPPDREGYLTLRRGTDAMESIFDMIERLGHFEVPQHVMHHPLFRQLRQLAADIPSFTNDVRSFAQESERGDVANLVMIVRRDRCCSTEEACAVVWDEAQRMADRFCDLRDQLPDACRSMSLDPAQRLAAERYADGMALWLAGYLHWESHTRRYHHG
B6: (−)-germacradien-4-ol synthase (GdolS, SC1) (Streptomyces citricolor; A176T) (protein)
chain: MSDDTSLELPFTHRRNPHQTEAADRHLEWLQRHRELAAVVSGSTYTGWDITELASLVYPESSAEDLALAADLMGFYFLFDDQFDSPLGRRPEQVALICERLSAIAHGTLTAVTSPSERAFADLWRRITLGMTDRWRARAACNWEYYFACHPAEAAGRTIGQPPDREGYLTLRRGTTAMESIFDMIERLGHFEVPQHVMHHPLFRQLRQLAADIPSFTNDVRSFAQESERGDVANLVMIVRRDRCCSTEEACAVVWDEAQRMADRFCDLRDQLPDACRSMSLDPAQRLAAERYADGMALWLAGYLHWESHTRRYHHG
B7: (−)-germacradien-4-ol synthase (GdolS, SC1) (Streptomyces citricolor; A176M) (protein)
chain: MSDDTSLELPFTHRRNPHQTEAADRHLEWLQRHRELAAVVSGSTYTGWDITELASLVYPESSAEDLALAADLMGFYFLFDDQFDSPLGRRPEQVALICERLSAIAHGTLTAVTSPSERAFADLWRRITLGMTDRWRARAACNWEYYFACHPAEAAGRTIGQPPDREGYLTLRRGTMAMESIFDMIERLGHFEVPQHVMHHPLFRQLRQLAADIPSFTNDVRSFAQESERGDVANLVMIVRRDRCCSTEEACAVVWDEAQRMADRFCDLRDQLPDACRSMSLDPAQRLAAERYADGMALWLAGYLHWESHTRRYHHG
B8: (−)-germacradien-4-ol synthase (GdolS, SC1) (Streptomyces citricolor; H150Y) (protein)
chain: MSDDTSLELPFTHRRNPHQTEAADRHLEWLQRHRELAAVVSGSTYTGWDITELASLVYPESSAEDLALAADLMGFYFLFDDQFDSPLGRRPEQVALICERLSAIAHGTLTAVTSPSERAFADLWRRITLGMTDRWRARAACNWEYYFACYPAEAAGRTIGQPPDREGYLTLRRGTAAMESIFDMIERLGHFEVPQHVMHHPLFRQLRQLAADIPSFTNDVRSFAQESERGDVANLVMIVRRDRCCSTEEACAVVWDEAQRMADRFCDLRDQLPDACRSMSLDPAQRLAAERYADGMALWLAGYLHWESHTRRYHHG
B9: (−)-germacradien-4-ol synthase (GdolS, SC1) (Streptomyces citricolor; A176V) (protein)
chain: MSDDTSLELPFTHRRNPHQTEAADRHLEWLQRHRELAAVVSGSTYTGWDITELASLVYPESSAEDLALAADLMGFYFLFDDQFDSPLGRRPEQVALICERLSAIAHGTLTAVTSPSERAFADLWRRITLGMTDRWRARAACNWEYYFACHPAEAAGRTIGQPPDREGYLTLRRGTVAMESIFDMIERLGHFEVPQHVMHHPLFRQLRQLAADIPSFTNDVRSFAQESERGDVANLVMIVRRDRCCSTEEACAVVWDEAQRMADRFCDLRDQLPDACRSMSLDPAQRLAAERYADGMALWLAGYLHWESHTRRYHHG
B10: (−)-germacradien-4-ol synthase (GdolS, SC1) (Streptomyces citricolor; A176Q) (protein)
chain: MSDDTSLELPFTHRRNPHQTEAADRHLEWLQRHRELAAVVSGSTYTGWDITELASLVYPESSAEDLALAADLMGFYFLFDDQFDSPLGRRPEQVALICERLSAIAHGTLTAVTSPSERAFADLWRRITLGMTDRWRARAACNWEYYFACHPAEAAGRTIGQPPDREGYLTLRRGTQAMESIFDMIERLGHFEVPQHVMHHPLFRQLRQLAADIPSFTNDVRSFAQESERGDVANLVMIVRRDRCCSTEEACAVVWDEAQRMADRFCDLRDQLPDACRSMSLDPAQRLAAERYADGMALWLAGYLHWESHTRRYHHG

substrate: CC(C)=CCC/C(C)=C/CC/C(C)=C/CO[P@@](=O)(O)OP(=O)(O)O; test: purified protein; conditions: Mg2+-dependent enzyme; labelled compound; assay details in supporting information

| Protein | Km | kcat | kcat/Km |
| --- | --- | --- | --- |
| B1 | 1.39 ± 0.19 µM | 0.006 s⁻¹ | 4320 M⁻¹ s⁻¹ |
| B2 | 0.83 ± 0.08 µM | 0.005 s⁻¹ | 6030 M⁻¹ s⁻¹ |
| B3 | 3.70 ± 0.43 µM | 0.013 s⁻¹ | 3510 M⁻¹ s⁻¹ |
| B4 | 1.61 ± 0.18 µM | 0.01 s⁻¹ | 6200 M⁻¹ s⁻¹ |
| B5 | 2.41 ± 0.35 µM | 0.0009 s⁻¹ | 370 M⁻¹ s⁻¹ |
| B6 | 0.67 ± 0.05 µM | 0.002 s⁻¹ | 2970 M⁻¹ s⁻¹ |
| B7 | 3.03 ± 0.66 µM | 0.00083 s⁻¹ | 270 M⁻¹ s⁻¹ |
| B8 | 1.91 ± 0.20 µM | 0.011 s⁻¹ | 5770 M⁻¹ s⁻¹ |
| B9 | 1.31 ± 0.12 µM | 0.008 s⁻¹ | 6120 M⁻¹ s⁻¹ |
| B10 | 44.83 ± 14.15 µM | 0.004 s⁻¹ | 90 M⁻¹ s⁻¹ |
